Measurements as given in the supplement of paper PMC12764529.
± gives the half width of the 95% confidence interval.

Columns and labels:
[1] = folding stability dG unfold from trypsin proteolysis; higher = more stable
Experimental: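 Folding stability of de novo designed mini-proteins (<80 aa, no Cys; designed by TrROS, TrMRF, ProteinMPNN and the joint model) was measured by cDNA display proteolysis with trypsin and chymotrypsin. Each protease was used at 11 concentrations in a threefold dilution series plus a no-protease condition. K50 was inferred by Bayesian fitting of sequencing counts, and dG unfold was derived against a sequence-predicted unfolded-state K50 (Tsuboyama et al. method). Sequences shown include variable-length N-terminal GS-type padding (SAGGSAGG...) inside a display construct carrying a PA tag. Rows were kept only if the AF2 dimer inter-PAE was >15, to exclude likely homo-oligomers.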

[2] = folding stability dG unfold (combined trypsin and chymotrypsin); higher = more stable
Method in brief: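 Unfolding free energy was derived, per protease or combined, against a sequence-predicted unfolded-state K50 and a shared folded-state K50, starting from K50 inferred by Bayesian fitting of sequencing counts. Digestion with trypsin and chymotrypsin was carried out on designed mini-proteins under 80 residues without cysteine in a PA-tagged cDNA display construct. Only designs with AlphaFold2 dimer inter-PAE above 15 were kept.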

Row | Sequence | folding stability dG unfold [1] [kcal/mol] | folding stability dG unfold [2] [kcal/mol]
1 | SAGGSAGGPPDDVEPEEFTFRFGDKPIKVEILRVNPDNNNIMIKHESNGKPKTMMFPPEDLEKLSAGGSAGG [r6_421_TrROS] | -0.129 ± 0.29 | -0.0461 ± 0.25
2 | SAGGSAGGSAGGDPVTVLSIKPEPGKLTVTTNTRADGSTTTTTVSPENPPNIKPGEPLSSAGGSAGGSAGGS [r10_834_JUSTAS] | 0.552 ± 0.04 | 0.109 ± 0.18
3 | SAGGSAGGSAMILVPKEKLEEAAKKLNLNIVEVKPVPPGIEVAEVKVEGSEEQKKAFLEALLSAGGSAGGSA [r18_175_JUSTAS] | 0.216 ± 0.082 | 0.0149 ± 0.2
4 | SAGGSAGGSAGSYEFDPSKSALVRVTLQPPDGVPVEIEIPVEELEEILPGDRPVLSIEVSSAGGSAGGSAGG [r17_449_JUSTAS] | 0.0674 ± 0.14 | -0.838 ± 0.51
5 | KTIEIMIPMEQMRNNKPIPADQFLKELAQEFGGPNVKPKVEPMPDNMMKATITLPNGRKIEITDPGAIKIKS [r1_168_TrROS] | -0.43 ± 0.57 | < -1
6 | SAGGSAGGSGMVSSVVKHTVELNVPENRPNAEELAAELRAAHPGVTVVEITETPNKAVITVEESAGGSAGGS [r12_454_JUSTAS] | 0.296 ± 0.062 | < -1
7 | SAGGGMVERTETVTVPLSDVLAGRPPTPEAIAAARFPDTAEVTLETTEVPEDDTVTVTLTVRVPPELLSAGG [r13_862_JUSTAS] | 0.472 ± 0.069 | -0.0656 ± 0.21
8 | SAGGSAGGSAGGVKPGEVLPDGRLLVTWDEETNELTVYFEDTETITLKAPPPVVVSPEDLSAGGSAGGSAGG [r7_522_TrROS_Hall] | 0.0426 ± 0.11 | -0.614 ± 0.46
9 | SAGGSAGGSAGGMYIATFKPPDGSEITVKLNPGEKVTIKLKDGTPAGVVSKKAVSPELLSAGGSAGGSAGGS [r10_422_JUSTAS] | -0.245 ± 0.17 | -0.361 ± 0.68
10 | SAGGSAGGSAGGSKKIIIPVGNKPIEITLHPDEIPEIHPETNYISIYLPKTNDVLILPVGSAGGSAGGSAGG [r7_7_TrMRF] | -0.0749 ± 0.051 | < -1
11 | SAGGMVVRTPDGSTVEITVTDPASGSPYRSTDPGGGVEAAIAAINASPAYPNATVSITRYDAGTASPASAGG [r13_914_JUSTAS] | -0.286 ± 0.1 | -0.485 ± 0.16
12 | SAMTLTVPPSLSATDAAGNAIPPSLSIEVEKVTPLPETGKVVAEVKITDPETGETTTRPLTITLPPGEASAG [r14_258_JUSTAS] | 0.827 ± 0.048 | 0.506 ± 0.19
13 | SAGAGTVASPEEAEELVEELRAALPPEATITRDPTPEGGVRFTVRLPGEGRVLEMEFDPARDTTARRPESAG [r5_358_JUSTAS] | -0.391 ± 0.083 | < -1
14 | SAGGMVTVERGPENRVITITLPPSVPEKVDELAAKLGTDYVTTEPLPEGDLVRYTIYVPGDNPALLESAGGS [r16_479_JUSTAS] | 0.0152 ± 0.12 | -0.948 ± 0.41
15 | SAGGSAGGSAGGEVEVPKDASLVVTYPNGERKEVPVEDKVPVKGLPVYLLGPDGTLREIDSAGGSAGGSAGG [r7_54_TrMRF] | 0.294 ± 0.18 | < -1
16 | SDVNIKPEKVDPNGIFTVEIPVDNNNVDKLREIINEIFPNFEPTEVKPNPESGYHEIIMRVPDGKAFEFSSA [r9_1164_TrROS] | -0.141 ± 0.04 | -0.55 ± 0.14
17 | SAGGSAGGSAGNIAERLQEAFPDYGIEVTDITPNGSITVTSRGPPGHRKKIQKAVKELLNSAGGSAGGSAGG [r11_418_TrROS] | -0.879 ± 0.57 | < -1
18 | SAGGSAMIKTYEEEVELTVPGGSTPVKVRVKTIEKIEKDEKGNLKTEVVEVKIETPENAPAVALLLSAGGSA [r15_258_JUSTAS] | -0.327 ± 0.21 | -0.857 ± 0.51
19 | SAGGSAGGSASSPSSPVKVTVTVTAPDSLVKTITVTKTPEGVIDLVLPSDIPSDYKITIIESAGGSAGGSAG [r3_44_JUSTAS] | 0.0537 ± 0.08 | -0.699 ± 0.51
20 | VEFEEIETTFTLAAPGGSLVDVDLKTTKKDPKNGKVYIEGTLTTVDPGGVPRTLPTKRVVSPEELKQLVSES [r1_371_JUSTAS] | 0.143 ± 0.19 | -0.318 ± 0.49
21 | SAGGSAGGSAGEPIRVRIENPPGGQRKITIPTDDLQEKGITPKDIAKKLAREFGWPIEVWSAGGSAGGSAGG [r11_829_TrROS] | 0.257 ± 0.3 | < -1
22 | SAGGSAGGSMSTSESVTVTFPDGSVRKATILKQEKLPNGTVPVEIVDEGGTSVGTRNWTVTAESAGGSAGGS [r12_735_JUSTAS] | -0.456 ± 0.28 | < -1
23 | SAGGSAGGSAGGMVIEIDVPPSVPASEVKEKVKAELLKKGVPKDTEIKVIVKPKNPELLSAGGSAGGSAGGS [r10_746_JUSTAS] | -0.656 ± 0.2 | < -1
24 | SAGGSLPVVDGPSDLVETTVYEDGTIEIKVERAEPPGVPTVRTLTITLEPPVGPPKVPPGNPKYLGSAGGSA [r2_368_JUSTAS] | -1.08 ± 0.53 | < -1

Row | Sequence | folding stability dG unfold [1] [kcal/mol] | folding stability dG unfold [2] [kcal/mol]
25 | SAGGSAYGKKKNDPDGNPKYEMEPQPTIEVPVTIPIFDNNNNPLLEIPIPASMPISDINDEIKDLFSAGGSA [r15_309_TrROS] | -1.57 ± 0.7 | < -1
26 | SGSPSTPVTITVEFPPRLTTVLYREPTRPPLGYLLVPEPSRTETITVPVSEVAAVKAELEPRGMTVTVTASA [r9_167_JUSTAS] | -0.69 ± 0.33 | < -1
27 | SAGGSAGGSAGGTKVIPFDSVEEILEEVKKDPNKPRYIRMPGAWIKINKPGDITEIEPWPSAGGSAGGSAGG [r7_532_TrROS] | -0.655 ± 0.46 | < -1
28 | SDILERAAEKGVDEIHIMLQPNQIELIKRLQDRGAKIEIHFPPGVPKEYLKKLPGFKVDKVEWMPPDDMPSA [r9_671_TrROS] | -0.928 ± 0.56 | < -1
29 | SAGGSAGGSAGSVEEIESPDGTKTLVTKEPDSIKTTVTKPGGIPTLVTIDSKTGKWSVSLSAGGSAGGSAGG [r11_590_JUSTAS] | -0.595 ± 0.24 | -0.714 ± 0.63
30 | SAGGSAGGAEELAEELERALPEGEVTEVRVEVVELPEGEPEVVVTVRVKRDGKEVKELPVIRVPSAGGSAGG [r6_630_TrROS_Hall] | -0.492 ± 0.16 | -0.997 ± 0.44
31 | SAGGSAGGSAMTPDELKDNFPNMPVEPRPLNNSTQWKIEMPGGMRIEIQYDPGKPKIDIEEGSAGGSAGGSA [r18_13_TrROS] | -0.039 ± 0.064 | -0.622 ± 0.23
32 | SAGMYTVLETRTVNGRTVTLIDVPERPLTVTVTVDRDPSGRRTVTVNVEGEVKEILEKANPDIDELTLESAG [r5_933_JUSTAS] | 0.456 ± 0.096 | -0.15 ± 0.2
33 | SAGGSAGGSAMLTKTIKLPNGKPASVTITTLSEGSSPGSSVDPKLVINADPNIPKEIVDKLLSAGGSAGGSA [r18_272_JUSTAS] | -0.624 ± 0.077 | -0.685 ± 0.13
34 | SAGGSAGGSAGMKPGQVVIYKIKIPLPDDGEPLFEIPIMYPVGMPEEQAKDFAKEFADKFSAGGSAGGSAGG [r11_516_TrROS] | -0.41 ± 0.12 | -0.586 ± 0.24
35 | SAGGSAGGSAGSKEKLEEEAKAKGRPVTPLPDGTLKVETVDPNKGTASTTVIDPETAEKLSAGGSAGGSAGG [r11_994_JUSTAS] | -0.626 ± 0.058 | < -1
36 | SAGGSAGGYVEVTIMIPPDDLDEIKEIAEPFGFTSVETERVPDNPMVVVKIEVKIPKEDDKDNKSAGGSAGG [r6_273_TrROS] | 0.427 ± 0.054 | -0.139 ± 0.2
37 | SAGGSAEKPTATLRPVVLNYPEGPISRDPSGNVVNSPEELAKEVKEEILKKTGLPVEEIVVLVEPPSAGGSA [r15_415_JUSTAS] | -0.739 ± 0.061 | < -1
38 | SAGGSPTIDITPEVFEELKKKGVTPDKESFNITASLPDGTVYEGTITLPPSNPNIPFEYKPVDKPLESAGGS [r16_497_JUSTAS] | -0.22 ± 0.061 | -0.515 ± 0.21
39 | SGMTTSLGKSTTTTLPDGTTVKTEVKLTRPSSGTVVVTTDTTTVTPGTGTTTTTPTTTVVPVPPGVPGLLSA [r9_709_JUSTAS] | -0.522 ± 0.051 | < -1
40 | SAGGMVEIDPNPRVITVTDPSSSKVTKLNLPFPPDEVEKVTVLPDGTIAVYVPATGETIEVPLSELGSAGGS [r16_410_JUSTAS] | -0.136 ± 0.22 | -0.774 ± 0.33
41 | SAGGSAGGSAGGTKEFPIWFGGEPVKVTVEPDPDGQPKIEIEEPGGAEITIPPGGPLQFSAGGSAGGSAGGS [r10_989_TrROS] | 0.934 ± 0.061 | 0.343 ± 0.21
42 | SAGGSVRIESIKWKRPPNGMFKIEIHVEAPPGDPDDPEKQERQAESVAKPIAKELQDEFGFKPIGPSAGGSA [r2_306_TrROS] | -0.774 ± 0.99 | < -1
43 | SAGGSAGGSGMKPAKVLKVEEFFDPKNNTSFKKVEAELPDRKITLELPPGEPVDENSTILVEESAGGSAGGS [r20_49_JUSTAS] | -0.428 ± 0.28 | -0.759 ± 0.47
44 | SAGGSAGGSAGGKKKVKVGNKEVEIVKEEEKEGKLIIKDKKTGKKIEISKEDLKKKKIKLSAGGSAGGSAGG [r7_391_TrROS_Hall] | -0.42 ± 0.52 | < -1
45 | SAGGSAGGSAGGLEVSIPGWTVTKTEPLPDDSVLSTATKKNGPKFLISISPDEVTISPESAGGSAGGSAGGS [r10_312_JUSTAS] | -0.394 ± 0.16 | < -1
46 | SAGGSAGGSAGGFVEKYPDGVIVEKDPNNDSGTVKKVTTTKDPNTNKPTSKVTVTPISKLSAGGSAGGSAGG [r7_181_JUSTAS] | -0.844 ± 0.2 | < -1
47 | SAGGSAGGSAGGMPIRVYRDPSNPDVVYVETPESTRDVSLEEVERLPVDEIRSAAEVAAESAGGSAGGSAGG [r17_88_JUSTAS] | 0.335 ± 0.021 | -0.206 ± 0.16
